pKd: −log10 of the molar value.
Target: CXCR4 cognate ligand SDF1a (or CCL12) (UniProt P48061)
Experiment: ELISA, water-soluble CXCR4 with CCL12 (SDF1a), assay concentrations 50 nM to 10 uM

CXCR4 cognate ligand SDF1a (or CCL12), sequence (P48061 22-89 limits assumed): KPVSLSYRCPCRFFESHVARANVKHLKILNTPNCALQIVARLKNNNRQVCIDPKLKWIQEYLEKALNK

pKd: 7.10
Substance: water-soluble CXCR4-QTY protein, produced in E. coli BL21 (DE3) and purified with 1D4 rho-tag monoclonal antibody (receptor)

— patent US20200176073A1
